{"source": "patent US6344189B1", "about": "“Use of protease inhibitors for treating skin wounds” (Biotech Australia Pty., Ltd., priority 1998, dated 2002)", "molecules": {"B1": {"name": "plasminogen activator inhibitor 2 (protein, UniProt P05120 1-415, looked up)", "Plasminogen activator …": "MEDLCVANTLFALNLFKHLAKASPTQNLFLSPWSISSTMAMVYMGSRGSTEDQMAKVLQFNEVGANAVTPMTPENFTSCGFMQQIQKGSYPDAILQAQAADKIHSSFRSLSSAINASTGNYLLESVNKLFGEKSASFREEYIRLCQKYYSSEPQAVDFLECAEEARKKINSWVKTQTKGKIPNLLPEGSVDGDTRMVLVNAVYFKGKWKTPFEKKLNGLYPFRVNSAQRTPVQMMYLREKLNIGYIEDLKAQILELPYAGDVSMFLLLPDEIADVSTGLELLESEITYDKLNKWTSKDKMAEDEVEVYIPQFKLEEHYELRSILRSMGMEDAFNKGRANFSGMSERNDLFLSEVFHQAMVDVNEEGTEAAAGTGGVMTGRTGHGGPQFVADHPFLFLIMHKITNCILFFGRFSSP"}}, "key": {"[1]": {"test_system": "protease activity in wound fluid", "test": "Inhibition of protease activity in wound fluid in vitro, substrate ZGGRAMC, fluorescence at 460 nm", "format": "biochemical, patients", "procedure": "Wound fluid was collected from patients with chronic venous leg ulcers, and incubated in vitro in the presence or absence of each inhibitor along with the protease substrate ZGGRAMC. Cleavage of this substrate indicated protease activity, which was detected by fluorescence at 460 nm. Lack of fluorescence indicated inhibition of protease activity.\nConditions were as described above for single inhibitors."}, "[2]": {"molecular_target": "T1, uPA (Homo sapiens, UniProt P00749)", "T1 construct": "from tissue; host or cells: wound fluid", "test": "Addition of PAI-2 to wound fluid, uPA activity", "format": "biochemical", "details": "PAI-2 added to wound fluid", "description": "(§1) It also is apparent that the inhibitors must be stable in the wound fluid to be effective in aiding wound healing. In the context of the present invention, an inhibitor is suitably stable when it retains at least 50% of its activity after exposure to wound fluid for 3 hours. In this regard, therefore, it is particularly desirable to use an inhibitor that inhibits uPA and is stable in wound fluid."}, "[3]": {"test_system": "chronic venous leg ulcers", "test": "Double blind placebo controlled randomized trial of topical PAI-2, ulcer area by tracing", "format": "in vivo, patients", "details": "PAI-2 20 μg per cm^2 topical, five consecutive days; 29-day course; compared with placebo", "text": "The study was a double blind placebo controlled randomized trial. A stratified randomization was utilized according to ulcer size. Patients with ulcers less than, and greater than, 20 cm^2 were randomized separately. No minimum or maximum times were set for the patients' current ulcer episode. Minimum and maximum ulcer areas were 2 cm^2 and 50 cm^2, and a patient's resting ankle brachial doppler arterial pressure index for inclusion was equal to or greater than 0.80.\nAll patients received compression bandaging. The area of the ulcer was determined by tracing, and the test solution, either PAI-2 at 1.0 mg/ml in phosphate buffered saline, pH 7.0, or buffer alone, was applied at 20 μl (20 ,μg in the case of PAI-2) per cm^2. The patient was asked to lie recumbent on the examination couch while the test solution was applied to the surface of the wound, and to remain there for 15 minutes before bandaging was applied.\n(§2) Test solution was applied in this manner for five consecutive days. This was followed by visits on days 15, 22, and 29. Ulcer area determination was made on days 1, 5, 15, 22, and 29, ulcer volume was measured by structured light assessment on days 1, 5, and 29, and the ulcer was photographed on days 1, 5, and 29. Adverse events were assessed at each visit, as were concomitant medications."}, "[4]": {"test": "Stability of PAI-2 in wound fluid", "format": "in vitro ADME", "details": "3-hour period, FIG. 1", "description": "as §1"}, "[5]": {"test_system": "uPA", "test": "uPA activity in patients' wound fluid by Chromolise assay", "format": "in vivo", "description": "(§3) In addition, wound fluid was collected on the first day before addition of test solution, and 2 hr, 4 hr, and 6 hr afterwards. Wound fluid collection was also made on days 2, 3, 4, and 5 (before test solution addition) and day 29. Blood samples were taken on day 1 at 0 (before), 0.5 hr, 1 hr, and 2 hr after the test solution, and also at day 5. A punch biopsy was taken for histochemical examination of the ulcer edge on day 5.\n(§4) All wound fluid samples were analyzed for uPA activity by the Chromolise assay, and for total protein by the Bradford assay. If sufficient wound fluid was available, the following assays were also performed, in order of priority: (i) PAI-2 antigen level, by ELISA; (ii) a Western blot to detect whether the PAI-2 molecule was intact, complexed, or in fragments; (iii) total protease activity, determined by a chromogenic assay using azo-casein as substrate, and (iv) total protease activity in the presence of EDTA (to block metalloproteases) or aprotinin (to block plasmin). In addition, blood samples were analyzed by PAI-2 ELISA (0, 0.5, 1, 2 hr on day 1) and analyzed for FBC and clinical chemistry on day 1(0) and day 5.\n(§5) The ELISA used for PAI-2 detected both glycosylated and non-glycosylated PAI-2, and both complexed (with uPA or tPA) and uncomplexed PAI-2. Insufficient wound fluid was obtained for total protease assays in the presence of aprotinin or EDTA. The variation in ulcer volume measurements by structured light assessment was very large:—20.4% on repeated measurements, so those data could not be used to judge small changes in ulcer volume."}, "[6]": {"test_system": "total protease activity in wound fluid", "test": "Total protease activity in wound fluid, chromogenic assay with azo-casein substrate", "format": "in vivo, patients", "details": "ng/ml of wound fluid or ng/mg protein", "description": "as §4"}, "[7]": {"test": "Adverse events and histological examination of ulcer edge biopsies", "format": "in vivo, patients", "description": "as §2, §3\nHistological examination was performed on biopsies taken at visit 5 after staining with hematoxylin and eosin. […] This effect is likely to be beneficial to the ulcer."}, "[8]": {"test": "PAI-2 antigen level by ELISA and Western blot in wound fluid and blood samples", "format": "in vivo, patients", "details": "for level of PAI-2 in wound fluid: first visit", "description": "as §3, §4, §5"}, "[9]": {"test": "PAI-2 release from gel in two compartment vessel with microporous membrane", "format": "physicochemical", "details": "cellulose gel, presence of Tween80, FIG. 4", "text": "In these experiments, the PAI-2 containing gel was placed in the top chamber of a two compartment vessel. The bottom chamber contained buffer, and the two chambers were separated by a microporous membrane. The appearance of PAI-2 in the lower chamber indicated PAI-2 release from the gel, and was monitored by assays for PAI-2 activity."}, "[10]": {"details": "single inhibitors, wound fluid of chronic venous leg ulcers"}}, "note": "“Also recorded” adds a separate entry of the source. Where two headings read alike, the source gives them in different places. Where a SMILES comes first, the peptide text is derived from it. [ ]: non-standard residue; d: D form. The star is where a group is joined. Sta = CC(C)C[C@H](N)[C@@H](O)CC(=O)O; Isovaleryl = CC(C)CC(=O)*", "data": [{"molecule": "N=C(N)NC(=O)c1nc(Cl)c(N)nc1N", "note": "[Amiloride]", "values": [{"measurement": "Percent Inhibition", "setting": "[1]; [10]", "result": 96, "unit": "%"}]}, {"molecule": "CC(C)CC(=O)N[C@H](C(=O)N[C@H](C(=O)N[C@@H](CC(C)C)[C@@H](O)CC(=O)N[C@@H](C)C(=O)N[C@@H](CC(C)C)[C@@H](O)CC(=O)O)C(C)C)C(C)C", "note": "[Pepstatin] (Isovaleryl-VV[Sta]A[Sta]-OH)", "values": [{"measurement": "Percent Inhibition", "setting": "[1]; [10]", "result": 0, "unit": "%"}]}, {"molecule": "glutamic acid-glycine-arginine chloromethyl ketone [EGRCK]", "values": [{"measurement": "Percent Inhibition", "setting": "[1]", "result": 94, "unit": "%"}]}, {"molecule": "O=C(O)CN(CCN(CC(=O)O)CC(=O)O)CC(=O)O", "note": "[EDTA, ethylene diamine tetraacetic acid]", "values": [{"measurement": "Percent Inhibition", "setting": "[1]; [10]", "result": 0, "unit": "%"}]}, {"molecule": "CCN1C(=O)C=CC1=O", "note": "[NEM, N-ethyl maleimide]", "values": [{"measurement": "Percent Inhibition", "setting": "[1]; [10]", "result": 21, "unit": "%"}]}, {"molecule": "B1", "values": [{"measurement": "uPA activity in wound fluid", "setting": "[2]", "result": "caused the inhibition of uPA activity"}, {"measurement": "ulcer area", "setting": "[3]", "result": "significant decrease in the area of leg ulcers compared to controls; also recorded: a reduction in the ulcer area"}, {"measurement": "stability in wound fluid", "setting": "[4]", "result": "relatively stable in wound fluid"}, {"measurement": "specific activity of uPA (ng/mg of total protein in wound fluid)", "setting": "[5]; first day of PAI-2 administration, relative to placebo group", "result": "declined over 6 hrs"}, {"measurement": "difference in uPA between the two groups expressed as units/ml of wound fluid", "setting": "[5]; per ml of wound fluid rather than per mg total protein", "result": "not apparent"}, {"measurement": "uPA activity in wound fluid", "setting": "[5]; subsequent days over the course of the study, PAI-2 vs placebo", "result": "no significant difference"}, {"measurement": "total protease activity", "setting": "[6]", "result": "did not appear to be altered"}, {"measurement": "damage to the tissue, histological examination", "setting": "[7]; biopsies at visit 5, hematoxylin and eosin", "result": "No evidence of damage to the tissue"}, {"measurement": "systemic toxicity", "setting": "[7]; in vivo", "result": "does not appear to have systemic toxicity"}, {"measurement": "adverse events", "setting": "[7]; topical PAI-2, chronic leg ulcers, course of the study", "result": "none of the adverse events was deemed related to the PAI-2 treatment"}, {"measurement": "intact PAI-2 in wound fluid, Western blot", "setting": "[8]; 2 hr", "result": "significant amounts of intact PAI-2"}, {"measurement": "level of PAI-2 in wound fluid", "setting": "[8]; 2 hr after topical application", "result": "increased dramatically"}, {"measurement": "level of PAI-2 in wound fluid", "setting": "[8]; 4 hr after topical application", "result": "declined almost to baseline"}, {"measurement": "systemic distribution of topically applied PAI-2", "setting": "[8]; blood samples, PAI-2 ELISA", "result": "No evidence of systemic distribution"}, {"measurement": "release of PAI-2 from gel", "setting": "[9]", "result": "enhanced release"}]}]}
